We go through 20 sequences from a protein production outcome set (Wang et al. 2014).
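Also: failed if final PepcDB status was selected cloned or expressed and not failed if soluble or beyond.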

A short description of the data set: label from the status in PepcDB records.
Turning to “MVRGDAVIVQAALQDGHWSGRADVLRRVEIPSGLGAWSSVVEDKKQALDLVDRVLSKNPASASAHRTKGAILLFGHPEEAMAEYDAALEIDPNNPAVYAAKTITLIVTGRAREAFSPLQLAHCYVCFGHCARVAEARCSIRTQGAGLRRVALLARSRT”, the protein production entry is reported as “failed”.
As to “VTLLVKSPNQRHRDLELSGDRGWSVGHLKAHLSRVYPERPRPEDQRLIYSGKLLLDHQCLRDLLPKQEKRHVLHLVCNVK”, the protein production result was “not failed”.
The value for “MIYLRKANERGHANHGWLDSWHTFSFANYYDPNFMGFSALRVINDDVIEAGQGFGTHPHKDMEILTYVLEGTVEHQDSMGNKEQVPAGEFQIMSAGTGIRHSEYNPSSTERLHLYQIWIMPEENGITPRYEQRRFDAVQGKQLVLSPDARDGSLKVHQDMELYRWALLKDEQSVHQIAAERRVWIQVVKGNVTINGVKASTSDGLAIWDEQAISIHADSDSEVLLFDLPPV” was “not failed”; that for “MNFEYPDGATPLDSDEAEGLLLTHITSRGELDRWEQENIAEGEAWAFGRRQKNILSEAFIRRLHKRMFGHVWRWAGEFRRSDKNIGVTWWQVPIELRKLCDDVVAWIAFGTYPPDEIAVRFHHRLVAIHPFANGNGRHARTMTDLLLVQALQRPRFTWGSGNLVSVGDCRRYYIEALRAADRHDYQLLLEFVRMLEHHHHHH” was “failed”; that for “MGGGEVKMMSLLEEMKGIYSKKGGKVKPFEKFEGELKEGYRFEYEKKLCEIDVAMFGLISGDLNPVHFDEDFASKTRFGGRVVHGMLTTSLVSAAVARLPGTVVLLEQSFRYTSPVRIGDVVRVEGVVSGVEKNRYTIDVKCYTGDKVVAEGVVKVLIW” was “not failed”.
For “MPINTPENISDNTSETSPELLHFNQLNLPPALLTRLDEIGYQQMTPVQSLSLPVILNNTDAVVRADTGSGKTTAFALTLLAKLEAKSFSPQALVLCPTRELAHQVADEVRKLAKSMLNIKILTLCGGEPSRIQTNSLEHGAHVLVGTPGRVLDHLEQRNVDLSMLTTLVLDEADRMLEMGFQDSLNAIVKHIPKTRQTLLFSATYPKNIAALAEQVTTKARNIEAIQEQAKPQIEQLFYAMNNEDSAQLVMNLLGDHQPENCLVFCNTKNEVKDIFNTLRANKFSVLALHGELEQKDRDQAIIQFSNGSARVLIATDVASRGLDIAELDLVISVNMAHDLDTHTHRIGRTGRAGKEGVAITLIAEKDDYKMRLLEDTFAEPIQVKPAPALSNNRPLKANMSTIQVSGGKKDKLRPGDIVGALTKDNVLSADDIGKIKLESTFGFVAVNSRLAKHALGLINNNKIKGKKFRAKVL” the value was “failed”; for “MSSRQQDTAPCNHRFSGSVPVFSAAPCPHPAASFISLPAGSPYDEKRFVPAPRRHVPMLNYIWSGLIIGSLLFALTVDTQELVENRFRNETALPVALDFPDGYAPDARRQPVEIRIDSATYRDVYGVNAAPDPVYAGTLVQTQEGRKVEFDPDADLPEPLATIQSFHATDDNPALRGALQGTSRTTAGVGRTETALQFEPVRFRKLNDIAQAALNFAETAASLALSLIGVLGLMLGLVKIGEEAGLIESLTGIVQPILSPLFPNVPDDHPALANISLNLLANVFGLGNAATPLGIKAMEDLQELNPSDEKASDDMVMLLALNTSSVQLVPPSLLVAIMGLQINQLFFSITLATLCSTVAGILGTLALHRLPYFRATAPHRTADAEDPDE”, “failed”; for “MSALRTIGALTAREMLKFVRDRSRVLGALAQPLALWLLLGLGFQNTFQPPQGSVGGSYGAFLLPGILALVLLFTAIFSTISIVEERTSGFLQAVLVAPTPRTALVFGTTLGGTLLATVQALLFLGALPLIDLSPGVAGVGMIVAVCLLTGLAFTALGFAIAWRMETTRGFHAVMNLFLLPLWFLSGAMFPVDGAAPVLQVVMWGNPVSYAVSGLRHGFHGFAGTPAALAGPGVCLAVTGAFAVLMTGLAVWQVRRPFFQT”, “failed”.
For “PVGAVMTPRPEVDMIDLSDPPDQIRATFASSPHSRLPATDGDRDDPIGIIQSKDVLEVYLRGETPDFRALVRDAPVIPASADARDALIMLRNASVHMGLVYDEFGGFEGVVSTADILESIVGAFSSEDG”, the protein production entry is reported as “failed”.
For “MAIEPSLISSLTWFAHVARHRSFTKAASEMGVTRAALSQHVKGLEKQLQVRLLNRTTRNMSLTEEGQRLLDTLHPSLSNIEQTLNSLNDLHIEPAGLIRISVSRTAARLLIEPHLGEFLSRYPKIRLELIMDDGLTNIVAEGMDAGIRLGVSLDEHMVAIPITPNLTNAIVGSPDYFKRYGKPETPNDLEHHNCLAYRFTSSGTLDHWSLTSPDVDKHTVIFEPKGNAVFNDDYSMLQAAMQGVGLIKHIDLWVLKYLEEGKLERVFVDWCKPFPGFYLYIPSRENMPKKIRVLMDFLIEKRAEL” the value was “failed”; for “MAKPVYHAITKYSPKKPVIVFVPSRKQTRLTAIDILTTCAADIQRQRFLHCTEKDLIPYLEKLSDSTLKETLLNGVGYLHEGLSPMERRLVEQLFSSGAIQVVVASRSLCWGMNVAAHLVIIMDTQYYNGKIHAYVDYPIYDVLQMVGHANRPLQDDEGRCVIMCQGSKKDFFKKFLYEPLPVESHLDHCMHDHFNAEIVTKTIENKQDAVDYLTWTFLYRRMTQNPNYYNLQGISHRHLSDHLSELVEQTLSDLEQSKCISIEDEMDVAPLNLGMIAAYYYINYTTIELFSMSLNAKTKVRGLIEIISNAAEYENIPIRHHEDNLLRQLAQKVPHKLNNPKFNDPHVKTNLLLQAHLSRMQLSAELQSDTEEILSKAIRLIQACVDVLSSNGWLSPALAAMELAQMVTQAMWSKDSYLKQLPHFTSEHIKRCTDKGVESVFDIMEMEDEERNALLQLTDSQIADVARFCNRYPNIELSYEVVDKDSIRSGGPVVVLVQLEREEEVTGPVIAPLFPQKREEGWWVVIGDAKSNSLISIKRLTLQQKAKVKLDFVAPATGAHNYTLYFMSDAYMGCDQEYKFSVDVKEAETDSDSD”, “failed”; for “MNIKVTVFHYILDRSYIFLLFIIFISLIFPIISAFISLIFVGLLFQGLYLRRQSSTNSPYIVLEILSMLSLIYAAQFFTHLLKATDIVFLSYLIIISLSLYRLKRIIKKKTNYLQNSKVAFTLLLLAFLLNWFISGFLDLTQGNFSVFGQFGYFSYPFLAIMNFISAFASITASPWFMIDMGIWLGVIGIFRIIEYNKLENKIRYLLMMFAYAFYSIYLPSFSPLQSEVQYIPYMWFNGLGTYGPVRSSYLLDGIIGTFTVTAILSFMFGSRQICSVTCTAPYMLQNTFLNSMKKYNRSSKVGRKTLTSRMSSWYKWVMSITWISLIILAVLSFLKFSILGNDPTMFYTSLYFNVIWYFQFMLMPFLGNYACVNSGICAWGSFNQLFGYLGFFKLKVRDLKQCLNCKTVDCANACPVGLTDMRAWFIKKGEFKSFKCVGVGDCVEVCPYNNITFYDVRSWIKEKLYPIQFKHRGTT”, “failed”.
With “AKAPQKKHKVLLQQFNTGDERAQKRQPIRGSDEVLFKVYCMDHTYTTIRVPVATSVKEVISAVADKLGSGEGLIIVKMSSGGEKVVLKPNDVSVFTTLTINGRLFACPREQFDSLTPLPEQEGPTVGTVGTFELMSSKDLAYQMTIYDWELFNCVHELELIYHTFGRHNFKKTTANLDLFLRRFNEIQFWVVTEICLCSQLSKRVQLLKKFIKIAAHCKEYKNLNSFFAIVMGLSNVAVSRLALTWEKLPSKFKKFYAEFESLMDPSRNHRAYRLTVAKLEPPLIPFMPLLIKDMTFTHEGNKTFIDNLVNFEKMRMIANTARTVRYYRSQPFNPDAAQANKNHQDVRSYVRQLNVIDNQRTLSQMSHRLEPRRP”, the protein production entry is recorded as “failed”.
The value for “MQVPGHAFNPVAAPYFPDHLAFLDGPMNARAQGLPRRLENIVLVADLAGTAVFAVEGAISAMRAQLDLLGVMVIAFIVALGGGVTRDLLIGATPPKAVADWRYPALALLMGGLAFVARDWVLGWSGPLLILLDAAGLGLFAVAGTQKAQNFGISPFVSMLMGTVTGVGGGVIRDIVLARIPLVLQVDLYASSAFVGAASLVIARRLGVPPLWSAWLAGTVCFALRMLSVRYGWQLPKAL” was “failed”; that for “MQDKNFDKLAQKFAKNIYGTPKGEIRAAVLWRDLAPALAQFGDKKLRILDAGGGFGYFSQKLARLGHEVVLCDISAEMLAQAKEQIDASDTPLAIRLVHAPIQALSITEHGMFDLILCHAVVEWLADAKTTMEGLLTMLKPNGLFSLMFYNKEAMRFHALVSGNFDYVAADLKVKKKVRLTPTHPLYIHEVKLWFAQWQMALLKESGVRVIHDYLKKQQAADFDYQKLLSMELEYSQREPYISLGRYVHFLGQSTATHSELEHHHHHH” was “not failed”; that for “MLKGIPKIIPPELLKVLCEMGHGDQLVIADGNFPAESIGKNAIVVRMDGHGGGEILKAILTVFPLDTYVDKPATLMEKVPGDTVATPIWDVYAGLIKEHDERGADAIGSLERFAFYEQAKNAYCVIASGESAQYANLILQKGVVFNAE” was “not failed”.
Turning to “MELLCIDYLGKPLRLEGTMAGWQQLFWDNILVAQRPAQEQYEGDIQHHFQLTQGEHVLECCLEIALTWQPFQLQYQTKLNGELVAQGMRSEKDVERQTPYEAPKVERRFSVIGLVSLAMKALKSAKMIKVVMASASLAAYSWLFSFQFALALIGCLVFHEYGHVRAMKYFGMKTKGIYLVPFLGGLALSDEKINTRWQDVVISIMGPCFGFLLSLLLVGVYWVTDSPFWAALAVFNAFLNLFNLLPVLPLDGGHILKSVSFSMNSKMGVILCVLAILGGIALSYSLGLTLFGFLLLMGALDIVFEWRQRHHSHLLPLNRYAQMVSTIWYFALVSGLIAIIIGFASTGDTLLSLPLLILGT”, the protein production result is listed as “failed”.
In the case of “MKKVIAGLAAASVVGVAVPGMDSAQAQVSNEALKEINGQTQTQTTVTETKTVETKSDLKYTVTADVLNVRSGAGTGHSVISKVKQGQVLQVIGQENGWFKVTVNGQTGYVSGDFVTTGGKTGTTVQQGTGTYTVNVSSLNVRTGPSTSHTVLGSVNKGKTVQVVSEVQDWFKINFNGGTGYVSKDFVTKGGSAVSNQTQQPTTNNNTTTVQTGGSYVVNTGALKVRTGPATYNAVIGGVTNGTVLNVTGAENGWYKINHNGRTGYVSADFVKFVKGGVNNVTNNVQQPVKDVQKPTTGGNTSSIAGFARSLNGSPYRTAGTTPAGFDCSGFIHYVLNQTGHKGARQTVAGYWSSKTKTSNPQPGDLVYFQNTYKSGPSHMGVYLGNGQFISAETDATGVRISSVSNSYWSKHLLGYTKAYLEHHHHHH”, the protein production result was “failed”.
For “MCPEFQRKAAGAPRMGAMLARCVLTAALALQAAAAARAVEIEIGVASRGVVDGLEFVQFSADERTMATTHWGNVVHLWDLKTLRVRSSVSVANRDFDFDLSPDGRALAVWNEEGKGEIELYDTDNGQPARALPAPRLPQGESRRGRSLVYRDDGTLEFVSHGWIGGHARKAYLLAVPAGQPRAAETPLPALVNSVAFRKSAVMDQGRLLLAGVDGADDELAIMDIASGRMLAREPGFRIASYAADARRAVFVEADGKQRILAFDFSSRSLSTLPRWTGSGKFQPYRFVAGTRFLVLAPDEPDASTRRAAPGIYDLQTRRLHRLPPDADPGSIDVWGATASYVLCNPDHTACQAEVADLAISRKLGTFAVQPSADFRTWISPSGSMVVVGGADDGTMMVWSVKEQRVIGPNLEHHHHHH” the value was “failed”; for “MPGSIPLIGERFPEMEVTTDHGVIKLPDHYVSQGKWFVLFSHPADFTPVCTTEFVSFARRYEDFQRLGVDLIGLSVDSVFSHIKWKEWIERHIGVRIPFPIIADPQGTVARRLGLLHAESATHTVRGVFIVDARGVIRTMLYYPMELGRLVDEILRIVKALKLGDSLKRAVPADWPNNEIIGEGLIVPPPTTEDQARARMESGQYRCLDWWFCWDTPASRDDVEEARRYLRRAAEKPAKLLYEEARTHLH”, “not failed”.
